From US20220119490A1 (Genentech, published 2022)

T1: CD96 (human, UniProt P40200)
T1 construct: expressed on cells; also called CD96 expressed on cells
T1 sequence (cell-surface-expressed binding partner, looked up): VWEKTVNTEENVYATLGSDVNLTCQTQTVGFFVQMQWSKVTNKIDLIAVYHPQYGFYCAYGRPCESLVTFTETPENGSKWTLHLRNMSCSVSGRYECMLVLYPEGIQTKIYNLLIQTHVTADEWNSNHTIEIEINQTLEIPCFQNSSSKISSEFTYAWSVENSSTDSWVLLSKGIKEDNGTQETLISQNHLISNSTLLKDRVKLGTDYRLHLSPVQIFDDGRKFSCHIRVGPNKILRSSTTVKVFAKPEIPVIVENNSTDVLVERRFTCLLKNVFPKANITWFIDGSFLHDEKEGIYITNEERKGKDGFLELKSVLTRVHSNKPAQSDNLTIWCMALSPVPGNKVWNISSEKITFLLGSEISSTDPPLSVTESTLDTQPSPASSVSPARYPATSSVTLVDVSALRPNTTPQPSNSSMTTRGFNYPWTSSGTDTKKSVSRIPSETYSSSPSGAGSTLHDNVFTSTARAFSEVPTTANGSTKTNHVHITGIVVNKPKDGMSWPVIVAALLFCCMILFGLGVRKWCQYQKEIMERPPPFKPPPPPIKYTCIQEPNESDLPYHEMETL

T2: LRRC4B expressed on cells (human, UniProt Q9NT99 36-713)
T2 construct: whole, on cells; C-terminally tagged in the co-IP; also called NGL-3; LRRC4B-FLAG
T2 sequence (looked up): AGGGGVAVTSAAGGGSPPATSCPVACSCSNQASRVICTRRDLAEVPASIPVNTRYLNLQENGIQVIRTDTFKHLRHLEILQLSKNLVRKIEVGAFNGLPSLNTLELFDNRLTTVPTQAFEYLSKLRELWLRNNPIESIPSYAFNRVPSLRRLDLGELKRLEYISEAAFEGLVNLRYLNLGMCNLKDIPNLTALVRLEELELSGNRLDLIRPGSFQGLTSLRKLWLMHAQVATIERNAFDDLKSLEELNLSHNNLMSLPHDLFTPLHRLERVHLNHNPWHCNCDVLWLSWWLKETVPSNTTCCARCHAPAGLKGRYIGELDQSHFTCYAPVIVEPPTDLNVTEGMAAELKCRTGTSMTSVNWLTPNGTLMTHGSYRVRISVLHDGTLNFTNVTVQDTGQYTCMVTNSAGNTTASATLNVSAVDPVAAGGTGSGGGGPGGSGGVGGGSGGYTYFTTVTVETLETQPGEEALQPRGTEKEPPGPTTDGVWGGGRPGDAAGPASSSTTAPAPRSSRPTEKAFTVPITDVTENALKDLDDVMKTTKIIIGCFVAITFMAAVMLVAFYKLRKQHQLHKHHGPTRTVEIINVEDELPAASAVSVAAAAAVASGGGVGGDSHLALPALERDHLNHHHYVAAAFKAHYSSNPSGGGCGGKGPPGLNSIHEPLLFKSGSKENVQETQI

T3: UNC5A (human, UniProt Q6ZN44)
T3 construct: expressed on cells; also called UNC5A expressed on cells
T3 sequence (cell-surface-expressed binding partner, looked up): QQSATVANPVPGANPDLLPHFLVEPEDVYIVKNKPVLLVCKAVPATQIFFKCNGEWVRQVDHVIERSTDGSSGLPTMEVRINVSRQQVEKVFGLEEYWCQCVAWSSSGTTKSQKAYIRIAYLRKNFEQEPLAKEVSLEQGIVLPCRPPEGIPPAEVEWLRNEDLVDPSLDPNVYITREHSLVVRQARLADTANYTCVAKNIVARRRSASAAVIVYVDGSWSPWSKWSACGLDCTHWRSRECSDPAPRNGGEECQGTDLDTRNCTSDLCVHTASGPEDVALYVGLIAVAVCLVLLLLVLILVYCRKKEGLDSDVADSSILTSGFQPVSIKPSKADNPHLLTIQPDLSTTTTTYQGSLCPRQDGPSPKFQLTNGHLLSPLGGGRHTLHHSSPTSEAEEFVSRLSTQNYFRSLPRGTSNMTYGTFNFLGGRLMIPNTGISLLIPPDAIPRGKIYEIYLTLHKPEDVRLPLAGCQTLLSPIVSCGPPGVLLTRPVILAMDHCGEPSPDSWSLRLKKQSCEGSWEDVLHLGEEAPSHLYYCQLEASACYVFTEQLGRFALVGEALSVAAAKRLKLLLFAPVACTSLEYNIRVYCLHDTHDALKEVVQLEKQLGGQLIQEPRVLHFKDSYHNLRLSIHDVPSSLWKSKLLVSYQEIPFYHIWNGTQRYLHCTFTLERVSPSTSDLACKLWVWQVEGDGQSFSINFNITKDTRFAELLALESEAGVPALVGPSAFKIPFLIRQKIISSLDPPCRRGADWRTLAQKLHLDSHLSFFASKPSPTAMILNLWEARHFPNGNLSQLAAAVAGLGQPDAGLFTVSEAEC

B1: LILRA5 extracellular domain (receptor)
chain: not shown
notes: extracellular domain; Soluble query, streptavidin tetramer
B2: PVR (receptor, human, UniProt P15151 21-343, looked up)
soluble query ectodomain: WPPPGTGDVVVQAPTQVPGFLGDSVTLPCYLQVPNMEVTHVSQLTWARHGESGSMAVFHQTQGPSYSESKRLEFVAARLGAELRNASLRMFGLRVEDEGNYTCLFVTFPQGSRSVDIWLRVLAKPQNTAEVQKVQLTGEPVPMARCVSTGGRPPAQITWHSDLGGMPNTSQVPGFLSGTVTVTSLWILVPSSQVDGKNVTCKVEHESFEKPQLLTVNLTVYYPPEVSISGYDNNWYLGQNEATLTCDARSNPEPTGYNWSTTMGPLPPFAVAQGAQLLIRPVDKPINTTLICNVTNALGARQAELTVQVKEGPPSEHSGISRN
modifications: biotinylated
notes: extracellular domain; also called poliovirus receptor; monomeric or tetrameric PVR ectodomain
B3: BTN3A3 extracellular domain (receptor)
chain: not shown
notes: as for B1
B4: SLITRK3 extracellular domain (receptor, human, UniProt O94933 29-654, looked up)
chain: TPIPLIEDSEEIDEPCFDPCYCEVKESLFHIHCDSKGFTNISQITEFWSRPFKLYLQRNSMRKLYTNSFLHLNNAVSINLGNNALQDIQTGAFNGLKILKRLYLHENKLDVFRNDTFLGLESLEYLQADYNVIKRIESGAFRNLSKLRVLILNDNLIPMLPTNLFKAVSLTHLDLRGNRLKVLFYRGMLDHIGRSLMELQLEENPWNCTCEIVQLKSWLERIPYTALVGDITCETPFHFHGKDLREIRKTELCPLLSDSEVEASLGIPHSSSSKENAWPTKPSSMLSSVHFTASSVEYKSSNKQPKPTKQPRTPRPPSTSQALYPGPNQPPIAPYQTRPPIPIICPTGCTCNLHINDLGLTVNCKERGFNNISELLPRPLNAKKLYLSSNLIQKIYRSDFWNFSSLDLLHLGNNRISYVQDGAFINLPNLKSLFLNGNDIEKLTPGMFRGLQSLHYLYFEFNVIREIQPAAFSLMPNLKLLFLNNNLLRTLPTDAFAGTSLARLNLRKNYFLYLPVAGVLEHLNAIVQIDLNENPWDCTCDLVPFKQWIETISSVSVVGDVLCRSPENLTHRDVRTIELEVLCPEMLHVAPAGESPAQPGDSHLIGAPTSASPYEFSPPGGPVPLS
notes: extracellular domain; Streptavidin tetramer in cell assay; ECD-Fc prey in the variant screen
B5: FLRT2 (receptor, human, UniProt O43155 36-541, looked up)
soluble query ectodomain: CPSVCRCDRNFVYCNERSLTSVPLGIPEGVTVLYLHNNQINNAGFPAELHNVQSVHTVYLYGNQLDEFPMNLPKNVRVLHLQENNIQTISRAALAQLLKLEELHLDDNSISTVGVEDGAFREAISLKLLFLSKNHLSSVPVGLPVDLQELRVDENRIAVISDMAFQNLTSLERLIVDGNLLTNKGIAEGTFSHLTKLKEFSIVRNSLSHPPPDLPGTHLIRLYLQDNQINHIPLTAFSNLRKLERLDISNNQLRMLTQGVFDNLSNLKQLTARNNPWFCDCSIKWVTEWLKYIPSSLNVRGFMCQGPEQVRGMAVRELNMNLLSCPTTTPGLPLFTPAPSTASPTTQPPTLSIPNPSRSYTPPTPTTSKLPTIPDWDGRERVTPPISERIQLSIHFVNDTSIQVSWLSLFTVMAYKLTWVKMGHSLVGGIVQERIVSGEKQHLSLVNLEPRSTYRICLVPLDAFNYRAVEDTICSEATTHASYLNNGSNTASSHEQTTSHSMGSPF
modifications: biotinylated
notes: extracellular domain; also called soluble query
B6: BTN3A1 extracellular domain (receptor)
chain: not shown
notes: as for B1
B7: EDAR extracellular domain (receptor, human, UniProt Q9UNE0 27-187, looked up)
chain: EYSNCGENEYYNQTTGLCQECPPCGPGEEPYLSCGYGTKDEDYGCVPCPAEKFSKGGYQICRRHKDCEGFFRATVLTPGDMENDAECGPCLPGYYMLENRPRNIYGMVCYSCLLAPPNTKECVGATSGASANFPGTSGSSTLSPFQHAHKELSGQGHLATA
notes: as for B1
B8: CD226 (receptor, human, UniProt Q15762 19-336, looked up)
cell-surface-expressed binding partner: EEVLWHTSVPFAENMSLECVYPSMGILTQVEWFKIGTQQDSIAIFSPTHGMVIRKPYAERVYFLNSTMASNNMTLFFRNASEDDVGYYSCSLYTYPQGTWQKVIQVVQSDSFEAAVPSNSHIVSEPGKNVTLTCQPQMTWPVQAVRWEKIQPRQIDLLTYCNLVHGRNFTSKFPRQIVSNCSHGRWSVIVIPDVTVSDSGLYRCYLQASAGENETFVMRLTVAEGKTDNQYTLFVAGGTVLLLLFVISITTIIVIFLNRRRRRERRDLFTESWDTQKAPNNYRSPISTSQPTNQSMDDTREDIYVNYPTFSRRPKTRV
notes: expressed on cells; also called CD226 expressed on cells
B9: TIGIT (receptor, human, UniProt Q495A1 22-244, looked up)
cell-surface-expressed binding partner: MMTGTIETTGNISAEKGGSIILQCHLSSTTAQVTQVNWEQQDQLLAICNADLGWHISPSFKDRVAPGPGLGLTLQSLTVNDTGEYFCIYHTYPDGTYTGRIFLEVLESSVAEHGARFQIPLLGAMAATLVVICTAVIVVVALTRKKKALRIHSVEGDLRRKSAGQEEWSPSAPSPPGSCVQAEAAPAGLCGEQRGEDCAELHDYFNVLSYRSLGNCSFFTETG
notes: expressed on cells; also called TIGIT expressed on cells

Tests used:
[1] = target: T4, LILRB1 expressed on cells (human, UniProt Q8NHL6 24-650); test: cell surface interaction assay: ECD tetramer on transfected cells (FIG. 5N)
T4 construct: whole, on cells; C-terminally tagged in the co-IP; also called LILRB1-FLAG

[2] = target: T1, CD96; test: cell surface binding of monomeric or streptavidin-tetramerised PVR ectodomain to CD96-expressing cells, normalized fluorescence intensity
[3] = target: T2, LRRC4B expressed on cells; test: cell surface interaction assay: streptavidin-tetramerized biotinylated ECD on transfected cells, immunofluorescence
[4] = target: T5, PTPRS expressed on cells (human, UniProt Q13332 30-1948); test: as above
T5 construct: whole, on cells; also called receptor-type tyrosine-protein phosphatase S

[5] = target: T6, PTPRD expressed on cells (human, UniProt P23468 21-1912); test: as above
T6 construct: whole, on cells; also called receptor-type tyrosine-protein phosphatase delta

[6] = target: T3, UNC5A; test: cell surface interaction assay: query ECD tetramerised with fluorescent streptavidin on transfected cells, immunofluorescence
[7] = target: B2; test: cell surface binding of monomeric or streptavidin-tetramerised PVR ectodomain to CD226-expressing cells, normalized fluorescence intensity
[8] = target: B2; test: cell surface binding of monomeric or streptavidin-tetramerised PVR ectodomain to TIGIT-expressing cells, normalized fluorescence intensity

T4 sequence (Q8NHL6 24-650): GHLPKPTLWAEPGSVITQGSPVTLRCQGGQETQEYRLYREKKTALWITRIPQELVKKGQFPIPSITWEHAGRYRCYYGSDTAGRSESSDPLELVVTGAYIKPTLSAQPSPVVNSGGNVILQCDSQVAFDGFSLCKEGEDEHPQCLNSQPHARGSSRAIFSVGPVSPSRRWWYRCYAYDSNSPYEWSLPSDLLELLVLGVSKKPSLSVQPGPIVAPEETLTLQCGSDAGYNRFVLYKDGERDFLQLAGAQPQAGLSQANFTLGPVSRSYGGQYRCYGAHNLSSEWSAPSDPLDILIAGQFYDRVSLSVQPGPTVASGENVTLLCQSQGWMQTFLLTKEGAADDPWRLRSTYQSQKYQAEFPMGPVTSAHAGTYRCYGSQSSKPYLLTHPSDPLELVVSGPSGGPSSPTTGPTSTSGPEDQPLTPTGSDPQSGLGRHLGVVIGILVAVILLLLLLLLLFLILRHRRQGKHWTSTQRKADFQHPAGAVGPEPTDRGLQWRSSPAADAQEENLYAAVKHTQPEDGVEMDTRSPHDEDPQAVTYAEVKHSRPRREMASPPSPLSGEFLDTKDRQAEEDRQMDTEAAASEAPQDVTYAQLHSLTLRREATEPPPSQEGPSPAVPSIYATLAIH
T6 sequence (P23468 21-1912): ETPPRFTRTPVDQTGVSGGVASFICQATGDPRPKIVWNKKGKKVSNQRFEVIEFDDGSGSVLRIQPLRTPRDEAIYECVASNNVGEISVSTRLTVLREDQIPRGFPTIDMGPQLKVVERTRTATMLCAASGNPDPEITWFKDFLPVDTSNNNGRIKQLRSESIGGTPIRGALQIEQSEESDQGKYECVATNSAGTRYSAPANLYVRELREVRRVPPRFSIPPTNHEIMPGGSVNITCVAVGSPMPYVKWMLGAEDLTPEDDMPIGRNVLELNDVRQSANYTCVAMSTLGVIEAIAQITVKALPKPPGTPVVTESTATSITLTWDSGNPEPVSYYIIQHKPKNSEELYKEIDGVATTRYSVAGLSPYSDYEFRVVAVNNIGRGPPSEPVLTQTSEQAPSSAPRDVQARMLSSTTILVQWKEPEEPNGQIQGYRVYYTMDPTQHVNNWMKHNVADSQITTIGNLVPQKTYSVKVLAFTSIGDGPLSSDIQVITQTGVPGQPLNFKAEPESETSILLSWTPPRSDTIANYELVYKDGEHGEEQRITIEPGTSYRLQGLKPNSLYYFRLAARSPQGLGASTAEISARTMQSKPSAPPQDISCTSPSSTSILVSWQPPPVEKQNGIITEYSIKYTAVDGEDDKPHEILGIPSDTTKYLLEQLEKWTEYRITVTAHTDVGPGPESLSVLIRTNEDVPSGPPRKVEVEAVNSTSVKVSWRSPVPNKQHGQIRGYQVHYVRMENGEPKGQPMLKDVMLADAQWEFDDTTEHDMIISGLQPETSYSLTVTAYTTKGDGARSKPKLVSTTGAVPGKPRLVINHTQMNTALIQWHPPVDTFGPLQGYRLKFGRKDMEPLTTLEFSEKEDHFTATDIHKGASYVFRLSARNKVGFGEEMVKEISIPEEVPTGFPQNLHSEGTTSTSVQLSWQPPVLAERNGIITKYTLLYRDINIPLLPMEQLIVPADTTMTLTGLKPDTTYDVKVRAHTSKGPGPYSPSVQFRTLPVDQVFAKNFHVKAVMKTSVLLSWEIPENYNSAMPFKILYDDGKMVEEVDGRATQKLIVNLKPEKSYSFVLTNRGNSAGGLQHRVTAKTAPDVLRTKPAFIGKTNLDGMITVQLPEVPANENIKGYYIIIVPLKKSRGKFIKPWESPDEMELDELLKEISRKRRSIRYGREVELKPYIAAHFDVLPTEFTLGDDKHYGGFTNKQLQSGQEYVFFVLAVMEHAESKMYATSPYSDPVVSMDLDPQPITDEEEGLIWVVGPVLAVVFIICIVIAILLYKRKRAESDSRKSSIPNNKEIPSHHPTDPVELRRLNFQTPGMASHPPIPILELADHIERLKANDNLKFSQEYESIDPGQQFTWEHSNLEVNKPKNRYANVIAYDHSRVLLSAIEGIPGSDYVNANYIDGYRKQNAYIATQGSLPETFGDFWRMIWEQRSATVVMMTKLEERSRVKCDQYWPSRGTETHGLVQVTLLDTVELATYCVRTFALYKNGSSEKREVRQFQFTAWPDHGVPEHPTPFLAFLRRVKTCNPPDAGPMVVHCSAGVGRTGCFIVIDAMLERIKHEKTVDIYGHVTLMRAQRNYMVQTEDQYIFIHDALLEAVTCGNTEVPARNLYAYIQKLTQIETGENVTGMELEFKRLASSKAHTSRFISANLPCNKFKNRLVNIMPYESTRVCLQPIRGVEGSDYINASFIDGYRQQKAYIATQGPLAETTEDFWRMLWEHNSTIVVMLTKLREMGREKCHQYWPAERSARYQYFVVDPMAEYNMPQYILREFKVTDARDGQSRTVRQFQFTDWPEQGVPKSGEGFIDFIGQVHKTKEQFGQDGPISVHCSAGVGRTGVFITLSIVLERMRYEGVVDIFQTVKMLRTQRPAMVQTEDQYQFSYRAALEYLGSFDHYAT
T5 sequence (Q13332 30-1948): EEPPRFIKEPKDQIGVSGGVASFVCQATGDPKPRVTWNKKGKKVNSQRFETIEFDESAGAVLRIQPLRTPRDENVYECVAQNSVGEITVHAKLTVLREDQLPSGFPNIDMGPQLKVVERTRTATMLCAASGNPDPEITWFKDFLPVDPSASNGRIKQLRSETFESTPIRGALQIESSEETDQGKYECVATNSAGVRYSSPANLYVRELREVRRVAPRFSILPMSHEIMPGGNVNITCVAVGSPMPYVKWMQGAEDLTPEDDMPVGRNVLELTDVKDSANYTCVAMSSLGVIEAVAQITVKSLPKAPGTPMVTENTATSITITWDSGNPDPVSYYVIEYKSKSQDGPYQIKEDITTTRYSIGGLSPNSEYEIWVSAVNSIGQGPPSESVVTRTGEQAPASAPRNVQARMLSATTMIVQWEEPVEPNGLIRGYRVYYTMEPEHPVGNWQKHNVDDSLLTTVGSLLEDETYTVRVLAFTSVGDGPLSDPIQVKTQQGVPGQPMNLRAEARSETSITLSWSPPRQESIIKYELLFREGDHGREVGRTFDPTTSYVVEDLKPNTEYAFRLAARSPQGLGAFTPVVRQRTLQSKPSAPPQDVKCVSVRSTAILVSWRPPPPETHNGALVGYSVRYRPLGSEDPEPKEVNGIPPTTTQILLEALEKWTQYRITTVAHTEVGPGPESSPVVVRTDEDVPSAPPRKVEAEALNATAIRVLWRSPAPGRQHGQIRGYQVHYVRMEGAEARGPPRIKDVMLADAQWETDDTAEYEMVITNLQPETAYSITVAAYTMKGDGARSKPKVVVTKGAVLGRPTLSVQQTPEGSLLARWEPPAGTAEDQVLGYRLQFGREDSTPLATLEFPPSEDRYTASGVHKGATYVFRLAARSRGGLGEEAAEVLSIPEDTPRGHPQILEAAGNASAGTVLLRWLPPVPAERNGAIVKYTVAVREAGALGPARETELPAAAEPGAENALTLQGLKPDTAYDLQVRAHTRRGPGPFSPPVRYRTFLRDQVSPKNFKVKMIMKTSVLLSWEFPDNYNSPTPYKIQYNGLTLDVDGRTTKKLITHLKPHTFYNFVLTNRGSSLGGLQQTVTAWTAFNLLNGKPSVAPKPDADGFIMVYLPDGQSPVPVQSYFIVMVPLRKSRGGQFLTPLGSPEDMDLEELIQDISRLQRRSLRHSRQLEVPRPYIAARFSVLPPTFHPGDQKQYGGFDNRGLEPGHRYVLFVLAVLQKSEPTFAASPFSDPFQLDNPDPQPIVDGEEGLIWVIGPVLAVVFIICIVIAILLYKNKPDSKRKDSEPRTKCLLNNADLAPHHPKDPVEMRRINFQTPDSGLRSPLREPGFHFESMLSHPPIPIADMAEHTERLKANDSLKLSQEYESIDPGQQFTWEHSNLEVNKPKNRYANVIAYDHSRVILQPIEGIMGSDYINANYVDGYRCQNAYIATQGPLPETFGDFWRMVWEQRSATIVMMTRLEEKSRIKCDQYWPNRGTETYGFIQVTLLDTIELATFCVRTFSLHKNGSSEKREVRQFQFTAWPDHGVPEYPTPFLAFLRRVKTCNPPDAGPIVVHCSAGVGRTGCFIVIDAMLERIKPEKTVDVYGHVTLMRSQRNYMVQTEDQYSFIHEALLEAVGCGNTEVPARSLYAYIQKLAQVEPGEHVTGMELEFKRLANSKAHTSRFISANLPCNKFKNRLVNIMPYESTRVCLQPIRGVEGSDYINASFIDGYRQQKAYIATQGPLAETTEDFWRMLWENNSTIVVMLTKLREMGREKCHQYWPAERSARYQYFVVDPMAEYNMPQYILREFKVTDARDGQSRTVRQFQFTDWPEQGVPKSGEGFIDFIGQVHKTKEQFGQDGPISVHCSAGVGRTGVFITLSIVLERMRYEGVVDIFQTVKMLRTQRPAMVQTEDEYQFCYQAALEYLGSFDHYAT

B1: binds [1].

B2: binds [2].

B3: binds [3].

B4: binds [4]; binds [5].

B5: binds [6].

B6: binds [3].

B7: binds [1].

B8: binds [7].

B9: binds [8].
